The target of data set [1] is T1, SNV nucleocapsid protein N wild type (SNVN) (Sin Nombre hantavirus, UniProt Q89462 1-428).
T1 sequence: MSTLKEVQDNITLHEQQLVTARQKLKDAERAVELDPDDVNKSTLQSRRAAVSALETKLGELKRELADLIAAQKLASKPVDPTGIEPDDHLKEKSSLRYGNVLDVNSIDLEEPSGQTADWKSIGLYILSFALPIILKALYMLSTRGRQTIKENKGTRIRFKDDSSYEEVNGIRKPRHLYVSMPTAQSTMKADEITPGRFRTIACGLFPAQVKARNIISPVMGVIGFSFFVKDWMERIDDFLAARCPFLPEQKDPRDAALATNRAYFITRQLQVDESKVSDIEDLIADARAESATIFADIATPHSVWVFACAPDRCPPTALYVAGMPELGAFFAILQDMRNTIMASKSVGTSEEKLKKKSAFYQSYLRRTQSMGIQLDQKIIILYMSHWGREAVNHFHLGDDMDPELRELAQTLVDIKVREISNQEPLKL
Description: filter binding.

Data set [2] concerns the target T1, SNV nucleocapsid protein N wild type …. Description: BLI. In general terms: In BLI a coated tip is dipped into the sample, and binding shifts an interference pattern.
For data set [3] the target is unchanged. Description: BLI. The source holds these as a separate data set.
Data set [4] has the same target. As to the kind of experiment: filter binding. This is another data set of the same source.

With GAUAUGUGAG (ssRNA, 5' mRNA cap (enzymatic, Cell Script)) [capped decameric RNA], the Kd in data set [1] stood at 0.12 ± 0.0006 µM; in data set [2] it was 0.106 ± 0.0057 µM; in data set [3] it was 0.1078 ± 0.0007 µM.
In data set [2], GAUAUGUGAG (ssRNA) [uncapped decameric RNA] displayed a Kd of 0.477 ± 0.0068 µM. Further, the binding signal in data set [4] is ~4 fold lower affinity than capped.

What is called Kd is a measure of binding affinity in units of concentration. A high value points to lower affinity.
